Assay results published in US20090215666A1 (ONCOTHERAPY SCIENCE, published 2009).

Target: T1, HA-tagged PPP3CA (calcineurin A subunit, PP2B) (UniProt Q08209 1-521, limits assumed)
T1 construct: Exogenously expressed in COS7 cells and immunoprecipitated with anti-HA antibody; not shown: HA tag
Assay: co-immunoprecipitation from co-transfected COS7 cells (anti-HA IP, anti-Flag blot)

binding result: no binding
B1: Flag-tagged ΔPDIIIT-C1958 (other, not shown: small tags and cut ends)
chain: MGLKMSCLKGFQMCVSSSSSSHDEAPVLNDKHLDVPPTPTGMMLPRDLGSTVWLDETGSCPDDGEIDPEA
notes: also called ΔPDIIIT mutant
